B1: TPR t1 (parent)
chain: GACCAAUCUGCCCUCAGAGCUCGAGAACAUCUUCGGAUGCAGAGGAGGCAGGCUUCGGUGGCGCGAUAGCGCCAACGUCCUCAACCUCCAAUGCAUCCCACCACAUGAUGAUGCCUGAAGAGCCUUGGUUUUUUG

The variants in the series derive from B1. In words: polymerase ribozyme fitness, log enrichment relative to wild type (log ratio); higher = more active; in vitro selection for triplet polymerase activity. In short, it runs like this:
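Each subunit of a heterodimeric triplet polymerase ribozyme was mutagenized into a library by PCR, transcribed, and subjected to one round of in vitro selection, run in triplicate. Libraries were annealed with a biotinylated primer, the partner subunit and triplets, incubated frozen at −7 °C, and extended constructs were gel-excised, captured on streptavidin beads and recovered by RT-PCR. Input and output libraries were sequenced on Illumina, keeping genotypes with ≥10 input reads and ≥1 read per output. Fitness is log base 2 of genotype enrichment divided by wild-type enrichment, from inverse-variance-weighted replicate averages.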
For C22A G61A A66C, the “polymerase ribozyme fitness (log ratio)” value is -5.28. The result for C15U C34A G60C C76U C82G A105G G113U reads -6.4; that for C13G G127C, -1.12. The result for C72U C82A A84C A111C reads 0.731. On to U21C A27G C56A C88A, for which the “polymerase ribozyme fitness (log ratio)” value is -4.66. For C8G U21A G57C A108G U133C, the “polymerase ribozyme fitness (log ratio)” value is -5.29. On to C53U C72A C123A G128U, for which the “polymerase ribozyme fitness (log ratio)” value was -0.319. The result for C12G C115A reads -0.408.

Turning to C20U U59A C76G, the “polymerase ribozyme fitness (log ratio)” value is -2.85. Regarding G60A U78A A84U G93A C102A, the “polymerase ribozyme fitness (log ratio)” value was -5. Take C8G C12G C114G: the “polymerase ribozyme fitness (log ratio)” value is -2.57.

Regarding C82U G128A, the “polymerase ribozyme fitness (log ratio)” value was -2.32.

With G51A C115G, the “polymerase ribozyme fitness (log ratio)” value is -4.23. For the variant U9G C13A C22G G48A, the “polymerase ribozyme fitness (log ratio)” value is -3.85. The value for C13U C40U G69U C88G was -2.27; that for G42U C101U G113C was -2.52.

Take G48U C64U: the “polymerase ribozyme fitness (log ratio)” value is -0.368. The value for A27G G120C was -0.195; that for C15G C40A A121G U129C was -3.1; that for C62A C124U was 1.51.

In the case of C8U C12A C72U G117C, the “polymerase ribozyme fitness (log ratio)” value is -1.86. The value for A6C C40A C62U C88A C104A was -5.43.

With A5C C22A G69U C80U C114A, the “polymerase ribozyme fitness (log ratio)” value is -1.41. The result for C11G C12G C49U U55G A91G reads -2.61; that for G10A C20U C97G C123U, -3.15; that for C8G C11A A50U U81C, -2.29.

Turning to C12G G44U U59G, the “polymerase ribozyme fitness (log ratio)” value is -1.39.

With U9C G61A C89U A105C, the “polymerase ribozyme fitness (log ratio)” value was -3.08. Regarding A29C, the “polymerase ribozyme fitness (log ratio)” value was -2.15.

Consider G60A A118C, for which the “polymerase ribozyme fitness (log ratio)” value was -3.63.

Take G47C G110C: the “polymerase ribozyme fitness (log ratio)” value was -6.05. The result for C40G C62U G93C G128U reads -1.46; that for C82A U116C C123A, -2.84; that for U7A C28G, -2.71. For U7C C40G A95U C102A, the “polymerase ribozyme fitness (log ratio)” value is -5.2. The value for A24C A26G was -4.53. The result for G45A G113A C115U reads -3.5. Turning to A2C U54A C72G C104U G113A, the “polymerase ribozyme fitness (log ratio)” value was -2.82. The value for G58C C73A U81A C89A was -3.31; that for C115U U125A was -0.551; that for C11A G113U G122U was -2.8. Take G48U A84G: the “polymerase ribozyme fitness (log ratio)” value is 0.021. The result for G58A G61A C73A U92A reads -5.1. As for C11A U30G A37C U112C, the “polymerase ribozyme fitness (log ratio)” value was -5.59. Take C8A C86U: the “polymerase ribozyme fitness (log ratio)” value is 0.466. The value for A5C A90U was -2.01; that for G17A U78C C94U was -3.74; that for C56U C115A was 0.248.

Consider G93A G128U, for which the “polymerase ribozyme fitness (log ratio)” value was -1.66.

For the variant G52U C64U, the “polymerase ribozyme fitness (log ratio)” value is -0.768. In the case of G93A U129A, the “polymerase ribozyme fitness (log ratio)” value was -1.36.

As for C4U C34G, the “polymerase ribozyme fitness (log ratio)” value is -5.92. The result for G39C A41U C72U A74U G113U C114U A121G reads -1.73; that for G61A U131C, -0.691; that for A43U G93U U112A G127C, -2.82. The value for C11U U30A was -4.5; that for C40U G52U C88U was -1.18.

U7G C40U A43G G44U C70U U112C: the “polymerase ribozyme fitness (log ratio)” value was -0.649. In the case of G61A A74U C101G G120C, the “polymerase ribozyme fitness (log ratio)” value was -2.7. The result for U9C reads 0.614. The result for C85G U112A U126A reads -1.28; that for C13U A37U A66G, -0.629. The result for C12U A24G G36A G63A reads -2.54; that for C53G G69A C115A U116A, -5.69; that for A37G G51C G77C C80A G120C G128C, -5.93.

On to C8A U78C U106C C114U, for which the “polymerase ribozyme fitness (log ratio)” value is -2.11.

For A90U U92C U96C, the “polymerase ribozyme fitness (log ratio)” value was -2.06.

With A2G G47A C72G, the “polymerase ribozyme fitness (log ratio)” value was -0.743. The result for G36A U129G reads -2.39; that for G61C C94U C115U A121G, -4.32. The result for G61U G107C reads -4.98; that for C11G U21A C49U G117C, -4.04; that for U78C U96A, -0.969.

G51U G61U C80A G127U: the “polymerase ribozyme fitness (log ratio)” value is -1.14. The result for G23C C123U reads -5.53; that for A29G C62U A118U G120C, -1.4; that for G10U C22G G60C C88A, -4.88. The value for G10A U30A U54A was -5.83; that for A18G C34G C70A U109A G128A was -5.92; that for C4A A16C C72A C101A C124U U130A was -4.51. The result for C11G C34U C86G A118U reads -5.02; that for G48A G63A C97A U112C, -4.92. Turning to U59A U96A, the “polymerase ribozyme fitness (log ratio)” value is -1.66. The result for C3A G10A G44U reads -3.54.

C28U A105C: the “polymerase ribozyme fitness (log ratio)” value is -4.77. The result for C13U C79G A83G C89G reads -4.49; that for A29G G60A U109A U112A G122A U130G, -6.7. The result for U67G C88U A111G U116A reads -7.24; that for C3A C40G G48C G77C C124U U133A, -4.13; that for G44A G71U, -1.33. The value for C28G G69A A121C was -5.9. With U54A C62U, the “polymerase ribozyme fitness (log ratio)” value is -1.02. The value for A83C A111U U134G was -2.14; that for G47A G60C G71U A119U was -6.29; that for A43U C56G U67A G69U G71C A75G C101A G107C C124G was -7.81. The result for A74G C101A reads -0.767; that for G39C G120A, 0.0157. In the case of G48U C53G, the “polymerase ribozyme fitness (log ratio)” value is -1.34. The result for C8U C124G reads 2.32; that for C97U U116G G135U, -3.49. The value for A24C C73G A83U C114G was -6.1.

Turning to U9C C73A A74U, the “polymerase ribozyme fitness (log ratio)” value was 0.19. The result for C20G G63A C102A U106C G120A U126A reads -7.38; that for A90C C98U, -2.83; that for G23A C49U C56A U116C, -6.08. The result for C15A reads -1.85; that for A83U C98A C123A U125A, -4.08. The result for G63C A111U G122A reads -5.6; that for C12A C20A G63A, -3.86. G71A G127U: the “polymerase ribozyme fitness (log ratio)” value was -0.848. The value for A2C C101U was -1.67; that for C4U C70A A121C U131A was -0.259; that for C49U C73U U81G U96C was -4.51. The value for G44C G71U was -2.2.

Turning to U116G A119G, the “polymerase ribozyme fitness (log ratio)” value turned out to be 1.79.

Consider U7C A27G A46U G48U U59G G60U, for which the “polymerase ribozyme fitness (log ratio)” value was -3.46. A83G C114A: the “polymerase ribozyme fitness (log ratio)” value was -3.07. The result for G63U G113U reads -4.29; that for U21G U38C G71C C99G C114U G120U A121U, -7.22; that for C4U C20A A111U, -2.94. The result for A6U G44A C94A reads -1.69; that for G42U G48A G52C C56G G69U G127U, -3.16; that for C8A C53U C114A, 0.0648. The value for C8U A29U C70A U87A was -2.4; that for C99U U130A was -3.71. As for C73G G93U, the “polymerase ribozyme fitness (log ratio)” value was -3.13.

As for C49A G93C G110U U132C, the “polymerase ribozyme fitness (log ratio)” value was -2.27.

On to C40A A84G C104A G120C G135A, for which the “polymerase ribozyme fitness (log ratio)” value is -4.9. For the variant A84G U92C U106G G113C, the “polymerase ribozyme fitness (log ratio)” value is -4.32. On to G42A G44C G47C C97U G120U U130C, for which the “polymerase ribozyme fitness (log ratio)” value was -3.09.

As for C3A C8G G63C A95C G117A G128U, the “polymerase ribozyme fitness (log ratio)” value was -0.17. The value for G51U G60U C73G was -2.23; that for G61A U78G was -0.87; that for A29U U87G A90C was -3.17.

Regarding C8G U87A U112G G113U C123U G127A, the “polymerase ribozyme fitness (log ratio)” value was -3.6. The result for A50C G127A reads -0.787; that for U7G C20U C115U, -2.32; that for C53U C94A, -1.44. The result for C15U C40U C114A reads -4.3. The result for C8G C20U G113C reads -1.52; that for C13U G36A C64U, -0.484.

As to G42C G122A, the “polymerase ribozyme fitness (log ratio)” value is -2.41. The result for C70A C124G U125A reads 0.0006.

Consider A74U C98A C99A, for which the “polymerase ribozyme fitness (log ratio)” value is -6.51.

For C8A C40G C88A A111C, the “polymerase ribozyme fitness (log ratio)” value is -1.02. Take A16U A50G G60U C97G U125A: the “polymerase ribozyme fitness (log ratio)” value was -7.95. The result for C22G G60A reads -3.33; that for A50C G120C, 0.605; that for C22U A83U, -4.1. The value for C56U U112A was 1.66.

For G47U G71C U125G, the “polymerase ribozyme fitness (log ratio)” value is -2.97. As to G63U U131C U132A, the “polymerase ribozyme fitness (log ratio)” value was -1.24. Take A84U U112A G128U: the “polymerase ribozyme fitness (log ratio)” value is -1.28. G36C G60U: the “polymerase ribozyme fitness (log ratio)” value is -0.402. The value for A2U C70U C88A was -3.44; that for G51A C89G was -4.83.

For G52U A105C, the “polymerase ribozyme fitness (log ratio)” value is -3.57. The value for A16U G93A U133A was -2.82; that for A95U U129C was -0.935; that for C115U G117C was -3.48. For C72U C94U G127U, the “polymerase ribozyme fitness (log ratio)” value was -1.75. The result for C8G C20A reads -1.49. The value for A27C C73U was -3.12; that for A26G C72G A100C C115U G128A was -5.88; that for U54G G113C U126C was -3.09. The value for G48C U133G was -1.8; that for C11G C28G C56G C85G was -6.05.

Values taken from the RNAGym collection of RNA variant scans (doi:10.1073/pnas.2313332121).
